Assay results: patent publication US9433687B2, “Anti-Notch3 antibodies and antibody-drug conjugates” (Pfizer Inc., priority 2012, dated 2016)
Values joined by “and” are separate entries in the source; they are usually repeats but may differ in a detail not shown here. Identical values can stand only once.

Biological target: T1, full-length human Notch3 expressed on the cell surface of U2OS/hNotch3 cells (Homo sapiens, UniProt Q9UM47)
T1 construct: U-2 OS cells stably over-expressing human or mouse full length Notch3 protein on cell surface; expressed in transfected cells; host or cells: U-2 OS (human osteosarcoma)
Experiment: Cell-based ELISA, U2OS/hNotch3 cells
Conditions: Table 29; two value columns; LB = lacked binding
Procedure: Humanized hu28 and hu75, and rat-human chimeric, ch28 and ch75, anti-Notch3 antibodies were screened for cell surface Notch3 binding in a cell-based ELISA. U-2 OS cells stably over-expressing human or mouse full length Notch3 protein on cell surface (hereinafter U2OS/hNotch3 and U2OS/mNotch3, respectively) were plated at 50,000 cells/well in 96 well plates (white opaque, BD/VWR) the day before ELISA assay. On the day of the ELISA, culture media was removed from wells and serially diluted (1:3 in blocking buffer) antibody solutions were applied to the plate. Plates were incubated at room temperature for 2 hours before being washed with PBS-Mg/Ca. HRP-conjugated secondary antibody was then applied and incubated with cells for 1 hour as described above for recombinant protein ELISA. Plates were washed with PBS-Mg/Ca before being developed with Pico-Chemiluminescent developing kit (Thermal Scientific), and chemiluminescence measurements were performed per manufacturer's instructions. Data plotting and analyses were performed with Microsoft Excel and Graphpad-Prism software.
Unconjugated anti-Notch3 antibodies, anti-Notch3 ADCs and a negative control antibody (huNeg8.8) were screened for cell surface binding activity to Notch3 expressing cell lines in a cell-based ELISA. […]

T1 sequence (Q9UM47 40-2321): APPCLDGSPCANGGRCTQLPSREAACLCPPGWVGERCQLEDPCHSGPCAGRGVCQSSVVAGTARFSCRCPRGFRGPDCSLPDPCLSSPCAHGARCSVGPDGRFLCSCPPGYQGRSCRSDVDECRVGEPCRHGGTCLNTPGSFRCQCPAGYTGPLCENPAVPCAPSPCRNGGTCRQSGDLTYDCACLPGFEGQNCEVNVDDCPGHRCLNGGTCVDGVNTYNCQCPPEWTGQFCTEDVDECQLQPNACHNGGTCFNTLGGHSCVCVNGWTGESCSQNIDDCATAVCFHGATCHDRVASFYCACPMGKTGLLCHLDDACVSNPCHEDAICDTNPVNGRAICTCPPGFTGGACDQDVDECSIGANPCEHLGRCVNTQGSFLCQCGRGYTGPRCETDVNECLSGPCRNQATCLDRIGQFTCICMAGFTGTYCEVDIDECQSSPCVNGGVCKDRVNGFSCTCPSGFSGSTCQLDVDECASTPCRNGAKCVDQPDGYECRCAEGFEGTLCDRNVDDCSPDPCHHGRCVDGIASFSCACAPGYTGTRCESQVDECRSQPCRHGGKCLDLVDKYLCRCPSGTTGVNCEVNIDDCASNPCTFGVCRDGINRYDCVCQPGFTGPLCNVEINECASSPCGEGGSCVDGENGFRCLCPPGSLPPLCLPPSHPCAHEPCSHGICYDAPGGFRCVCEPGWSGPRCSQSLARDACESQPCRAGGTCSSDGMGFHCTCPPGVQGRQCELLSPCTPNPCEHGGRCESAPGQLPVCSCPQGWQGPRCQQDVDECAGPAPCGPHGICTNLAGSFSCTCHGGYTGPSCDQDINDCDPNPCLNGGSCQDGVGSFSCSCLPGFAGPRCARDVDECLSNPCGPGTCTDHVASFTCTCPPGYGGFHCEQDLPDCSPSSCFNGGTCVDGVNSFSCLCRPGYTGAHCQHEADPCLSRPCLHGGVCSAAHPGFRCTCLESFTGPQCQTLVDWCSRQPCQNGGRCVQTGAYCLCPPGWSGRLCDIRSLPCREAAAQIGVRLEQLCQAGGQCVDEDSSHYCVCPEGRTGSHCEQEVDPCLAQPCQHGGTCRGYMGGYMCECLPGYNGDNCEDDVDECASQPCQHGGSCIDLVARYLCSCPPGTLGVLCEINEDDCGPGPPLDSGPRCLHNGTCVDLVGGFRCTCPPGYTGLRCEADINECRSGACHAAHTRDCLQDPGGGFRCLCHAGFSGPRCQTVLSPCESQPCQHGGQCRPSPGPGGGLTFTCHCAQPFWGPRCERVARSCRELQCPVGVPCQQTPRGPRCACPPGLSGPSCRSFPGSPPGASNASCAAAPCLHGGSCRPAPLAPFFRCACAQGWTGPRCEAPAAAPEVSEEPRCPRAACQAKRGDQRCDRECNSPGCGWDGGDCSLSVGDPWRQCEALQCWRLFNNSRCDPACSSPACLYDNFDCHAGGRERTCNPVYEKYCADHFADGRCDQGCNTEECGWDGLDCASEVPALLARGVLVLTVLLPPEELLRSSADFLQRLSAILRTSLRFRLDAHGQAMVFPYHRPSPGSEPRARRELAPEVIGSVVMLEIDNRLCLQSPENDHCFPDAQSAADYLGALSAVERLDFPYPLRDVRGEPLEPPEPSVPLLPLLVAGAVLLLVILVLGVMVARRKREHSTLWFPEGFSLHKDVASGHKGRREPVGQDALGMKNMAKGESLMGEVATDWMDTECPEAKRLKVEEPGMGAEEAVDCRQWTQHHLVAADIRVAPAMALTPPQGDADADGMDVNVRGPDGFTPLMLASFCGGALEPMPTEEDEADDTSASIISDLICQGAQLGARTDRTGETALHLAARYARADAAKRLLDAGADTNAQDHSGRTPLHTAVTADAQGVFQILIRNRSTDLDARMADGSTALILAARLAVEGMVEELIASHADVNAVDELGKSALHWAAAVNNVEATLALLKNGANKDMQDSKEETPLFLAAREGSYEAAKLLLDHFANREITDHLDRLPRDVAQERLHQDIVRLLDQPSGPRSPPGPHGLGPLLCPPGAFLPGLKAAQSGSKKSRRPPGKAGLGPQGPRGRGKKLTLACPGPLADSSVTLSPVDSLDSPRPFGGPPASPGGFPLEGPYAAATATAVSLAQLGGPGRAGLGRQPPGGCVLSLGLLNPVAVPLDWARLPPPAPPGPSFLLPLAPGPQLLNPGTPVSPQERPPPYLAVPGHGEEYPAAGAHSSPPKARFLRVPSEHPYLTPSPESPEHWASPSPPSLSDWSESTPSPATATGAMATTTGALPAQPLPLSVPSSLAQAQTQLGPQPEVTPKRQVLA

B1: hu28 VH1.0/VL1.0: humanized r28 variant VH1.0/VL1.0, anti-Notch3 antibody (VH SEQ ID NO: 13, VL SEQ ID NO: 25) (antibody, V domains shown)
VH: EVQLVESGGGLVQPGGSLRLSCAASGFTFRDYGMTWVRQAPGKGLEWVAYISSGSNYIYYAEAVKGRFTISRDNAKNSLYLQMNSLRAEDTAVYYCARRGPFVLDAWGQGTLVTVSS
VL: DIQMTQSPSSLSASVGDRVTITCKASQSINRYLHWYQQKPGKAPKLLIYNANGLQTGVPSRFSGSGSGTDFTLTISSLQPEDFATYYCLQHNTWPDTFGGGTKVEIK
  EC50: 300 pM and 260 pM
